In this test the target is T1, murine CD166(1-527)-His (mouse, UniProt Q61490 28-527).
T1 construct: signal peptide in the construct; ALCAM (CD166), mouse, residues 1-527 as printed; also called murine ALCAM; source: bought: Sino Biological, purified
T1 sequence (looked up): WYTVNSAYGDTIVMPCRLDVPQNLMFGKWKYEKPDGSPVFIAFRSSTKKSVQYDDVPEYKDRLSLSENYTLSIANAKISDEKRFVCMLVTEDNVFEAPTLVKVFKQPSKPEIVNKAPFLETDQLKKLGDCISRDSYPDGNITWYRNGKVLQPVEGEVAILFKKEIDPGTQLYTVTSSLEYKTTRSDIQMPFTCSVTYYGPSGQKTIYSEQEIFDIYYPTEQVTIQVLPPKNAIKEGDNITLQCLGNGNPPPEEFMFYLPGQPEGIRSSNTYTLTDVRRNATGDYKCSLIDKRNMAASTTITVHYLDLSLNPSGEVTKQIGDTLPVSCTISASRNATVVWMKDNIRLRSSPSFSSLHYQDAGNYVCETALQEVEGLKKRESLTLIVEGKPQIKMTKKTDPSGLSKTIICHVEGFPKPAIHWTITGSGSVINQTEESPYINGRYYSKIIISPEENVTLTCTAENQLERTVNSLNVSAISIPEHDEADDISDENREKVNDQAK
The test can be described thus: ELISA; competition ELISA: plates coated overnight at 4°C with murine CD166(1-527)-His (5 μg/ml), blocked with PBS with 2% milk powder; 2 h at RT with a fixed amount of murine CD6-Fc (1 μg/ml) and I/F8-Fc or KSF-Fc in PBS (4 to 0.25 μg/ml); bound CD6-Fc detected with HRP-coupled anti-human IgG. As to conditions: both partners purified. A general note: An ELISA detects its analyte on a solid surface through an enzyme-linked reagent.

B1: murine CD6-Fc (Fc fusion, mouse, UniProt Q61003 17-398, looked up)
chain: GLPSPAPSGQHKNGTIPNMTLDLEERLGIRLVNGSSRCSGSVKVLLESWEPVCAAHWNRAATEAVCKALNCGDSGKVTYLMPPTSELPPGATSGNTSSAGNTTWARAPTERCRGANWQFCKVQDQECSSDRRLVWVTCAENQAVRLVDGSSRCAGRVEMLEHGEWGTVCDDTWDLQDAHVVCKQLKCGWAVKALAGLHFTPGQGPIHRDQVNCSGTEAYLWDCPGRPGDQYCGHKEDAGVVCSEHQSWRLTGGIDSCEGQVEVYFRGVWSTVCDSEWYPSEAKVLCRSLGCGSAVARPRGLPHSLDGRMYYSCKGQEPALSTCSWRFNNSNLCSQSRAARVVCSGSQRHLNLSTSEVPSRVPVTIESSVPVSVKDKDSQGLT
notes: CD6, mouse; source: bought: R&D Systems
For B1, the binding result is recorded as “binds”.

The values are drawn from publication PMC6473055, “ALCAM Mediates DC Migration Through Afferent Lymphatics and Promotes Allospecific Immune Reactions” (Frontiers in Immunology, 2019).
